Assay: soluble fraction after stress (log2 fold change); higher = more stays soluble; pooled small domains, quantitative proteomics
Details: stress: 75 degC
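Note: 20 min heating vs room temperature control held 20 min.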

Row | Sequence | soluble fraction (log2)
1 | HMTHEAEDLNALRMMVRDPIFSSDEPDLQQLRGAVAHAPQFVDRFKELYNDYQRLAEFVQNSL | -0.993
2 | HMTHFRTDERRREILSTIEADGRVSVSEIASRFDVSPVTIRSDLNYLAIQGKLKRVRGGAVLLDH | -1.17
3 | HMTIDNPESQKIMDMVPFFFQSRNYDEAIEALTYVIEQEPQFSEAYNKRATFYFMMGDLENSMKDIEITLA | -0.29
4 | HMTIGIGKSLDFNTSGEKAYRIYNFKGAYVGTFKASDMTSLKNEVQKSNVKAGAYMVRSLDGHVNRLIEIK | -1.49
5 | HMTIGKIVNIIEGSYANVRSAPDQNSEPIGRAYPGDAFLVDPLGSSGDWVKVTYEGQSGFIFQAYISV | -3.94
6 | HMTIGKRIKRRRIELKMSIDSLARTIGKDRSTVYRYESGAIDKVSSDVLAKLATALNTTPAYLIGL | -4.61
7 | HMTIKNHIDEILKKEPFILENIKNGLINISALARQIEPQLSRKVGKKLNVNAIIMTIKRMEIDQLNK | -2.25
8 | HMTIPNGTVVNGTVLEAREAGAYLVRVAGQTLTAQANLPLLVGQHFRAVWDSSGDIPVLRLSDAEQALLGK | -0.362
9 | HMTIPRLPFAFAKRFGIVLDNRPSGFVAAHKEGLLPHVLLEVQRFLGDAYTLEVVSDDDFERILGQVYQT | -3.72
10 | HMTIPSYAEAVRYVRRQPRINTSTLADGLGIRWSLALDYLERMARSGVVGAIEDDGWWPVAR | -0.977
11 | HMTIRIPEEEYLTRAKRAAQMTAERGLDALFLFGSEGDFQNVRYFTSVTPIWERLGVVITASGKAAMLTGP | -0.145
12 | HMTIRPEDVELVPAEDGYMQGDVVSNIFKGVHYELEVKANGYDWMVHTTKYVEVGSHVGIKVIPFNIQV | 0.322
13 | HMTISPYTKDDFLKGTKPFEDVYAHKADPFVHDRALEQMTIWAKSVGVNGFKKLYKAYIDSLRIKNKEI | -0.315
14 | HMTKAGVDAWTRGDYAAAVKEWQAQAAKGDADAIFNLGQAFKLGKGVPQDLIKAEQLFGQAAA | 0.246
15 | HMTKDEIIIQSIIDAAKKLMQQYGLNKTTMEDIAKEAGKGKSTLYHYFKSKEEIFDQVINQEID | 0.0589
16 | HMTKEEFLDEIKKELGFMPYEEVIKAEKYFESYFNGSEADEKVIERFGSPKYAAQNYYRTHVAN | 0.029
17 | HMTKEEFLYELKKELSALDSAEATAYNLRYYSDYIDAEIAKGRSEQEVLDELGNPRWLVNSIKESG | -0.139
18 | HMTKGDRIKARREELGLTQTDLAEAISSTKQNIYKYENNIISNIPSDKVEAIAEVLKISPAYLMGWGDE | -0.0377
19 | HMTKGFSIQDISLSKSTMTFLQQNKITDLASLLSMSKSQIEGMKGFKPKMIQEIEKNLDKVGLVLAQD | -0.243
20 | HMTKGVKVEIGTEEASVDLYVVMEYGTPIQKAAYDAQESVRKAIETMTNLHVVRVDVHVQGVSF | -0.466
21 | HMTKGVWHTVKKGENLYRISLYYEVPQQEIKKANKIETENIVVGQKLFIPNTTKKSPIFALTP | -1.72
22 | HMTKIDYSINQIYSLRNIENITIVLKDKRSFTGKILKIYWQNGSKIILFTTETRNYKFKEYEISEIYKS | -1.02
23 | HMTKIEYTEQEFNDFIQAYKNNRKMFPEDYIVKTQVVFINKGFSKSQADMIIAQIETRLRLQGE | -2.91
24 | HMTKIKAIFFDIDGTIRSFKTKTIPENTANTLKKLKEQGIKIFIATGRAPFHTTFLNDLLDFKFDGYITIN | -0.659
25 | HMTKKSLFNQYLDDQKRLDIVTLQKAELVDLHKLADELNIDQYNQLKKNELIFKILQSNPSE | 0.162
26 | HMTKNEFLQGLKEELEGRVTHSAIQENIRYYDDYISQEVLKGSTEEEVTESLGGPRIIARTIVDAAYD | 0.0243

Row | Sequence | soluble fraction (log2)
27 | HMTKPLHELLSQREFQVFTQLAAGRSVGEIAQQLSLSSNTVSTYRARILEKTGTRNDVELALYAIRR | -2.31
28 | HMTKPTLMEVEIKGAIQNPGVYTLKRNSSISKLIKMSGPLLENADTSSISFTHILQDKDVVVIPEIK | -0.194
29 | HMTKQEYLNQLKNELVKQGVADAEDVVTEYEQHFAFKLADGFGEEEIAKKLGDPAAIASQFVG | 0.669
30 | HMTKQMELLAQGAAKLSVDLNQRQLDQLQTYYRELVDWNQRMNLTAITQYEEVQVKHFLDSL | -0.477
31 | HMTKRKNTEFRQQQIIEAAAKLIFKYGSEHLTVKRIAAQVGISEAAIYRHFTSKKSILSFLLSHIEE | -0.362
32 | HMTKRTVKSVARKIADFNRERHRMPTYEEMLTLLAVRSKSVVHFWMNKLLQEGILEKDESGHLTFV | -0.179
33 | HMTKSSAYLSAEKLINKKQYSDAIVKLNDALVTDSKNADIYNYLGFSHRKLGKMEDAAFFYNKALE | 0.0234
34 | HMTLDDSFYQKADEIIANHTKEERSLIPIIQDIQAEYRYLPPELLTYVAKEIGITDARAYSVASFYENFS | -0.521
35 | HMTLDEDYFYYTLKAKEGYYRLYKKLGVDRKIIDSLNPNLKEMGLQVGMVIRVPKSQTSDLSVKNSLLVE | -1.64
36 | HMTLHDLFPQAVEFVSEKEMISTAELQRKLMISYNSAAKIIDQLLHVDFIQKSESAGKYSVLIK | -2.66
37 | HMTLNTQLFTWKKGVRVGEDDQGNIYYRTKDDKRRWVIFTGETEATKVSPDWHGWLHRTWATPPNK | -2.27
38 | HMTLPGQDFIRASQLKELIAKYDKQYYEEGVSDISDAEYDRLYEEYLEFENKYPELKDMADAPTKRV | 0.659
39 | HMTLREQISALIKQGKLTQAKLARETGVNGGALSAWINGKYTGNVETVEEPIKHWMALNERK | -0.342
40 | HMTLSVRQRMSQIINKIDVSNFTDFTKLFDINEGRLGVAVTFLAILELLKDTMIDVIQNEEFAPLHIKVSS | 0.128
41 | HMTMIIQLDKNITQEQRQFLVEELNRLSISPNFVSTQFTNYIVGIPKKEFDIRLIGNLPGIADIHFV | -1.58
42 | HMTMKVTADILNMRSEASTNSDIVTKLKKDDELKVIEETKDDDGVTWVKVDFNGQVGFVSKEFLG | 0.237
43 | HMTMLLEYNVSRSSKWMNKTIMDAEIPDDILIVMIKRNGQVIVPKGSTEILENDILVLSGNNLNEVALG | -3.02
44 | HMTMNYYDILSIKRDATLEEIQKAYKEKSFQFHPDFNKGISDDSMFRIIKEAYETLSDTEKRNQYDASLNK | 0.45
45 | HMTMQTAEQESRLEQKLIDLSVGIDRFEGYSRPHGQLIASIADRIGTRLGMAAHDRFYMQQAAL | 0.203
46 | HMTNADRFIGEEAMVIKKIDDINNDGQVKIAGQVWSAVSEDKSPLEEGTIVKVIAIRGVKLVVEPVS | -0.369
47 | HMTNALDMMKTMDSDAYTKYQKISKESSNEDRQLNELKYITNWYAGAVKKNPSMVDDYEKQKEADS | 0.302
48 | HMTNELTEIFNSIRLTKKQKELLQSNYLSLRETYFLQGKTAFNLKFKNIAGLGKSTKKVLLEFFEESIE | -3.15
49 | HMTNIDIEKSIKNTITANYDDVLNYHNEDDNKTFASGDSRYSFDYDEKTKTLIVFTNSKVDAVFVDGIKKK | 0.308
50 | HMTNISDYILEEYYKNVYPNDLNTKRIVIPNKYEEYAGKYTYITIARMVTYEHDAKKALKVLHQQAT | -0.307
51 | HMTNKYSSLVIGTVKTIMEEDQYKNLMGPPLKKEIIKQVDKFTNALPIEFDQNDKDFYVKKILINL | -0.377
52 | HMTNLKALRESKGVSQQTVADYLGITRQAYGNYETGKRQADYAALLRLAAFFGVSVDALLQP | -1.18

Row | Sequence | soluble fraction (log2)
53 | HMTNNDIIRRVRYLFNFSDKQVIELFKLANETVSIEHVSGWLKKEEDPTLIEISDRDLAVFLNGLII | 0.557
54 | HMTNQEFNEVFKLLLAAYPNTKDKESVATIYFLTIANELTKKEFAEAVVKILKTRKSGFIPQPAEILEVAK | -2.54
55 | HMTNSAGIERFLASGAIDGVGPAMARRIVEHFGTEALRIIESVPHRLREISGIGPKTAEKIASSYMRQ | -1.15
56 | HMTNTDALINRAAKVVEEINPDKNTGRVSIDGDLWRAKSSSGELIEQNKQVIVISIESTIVTVKI | -0.228
57 | HMTNTWNNIVERNDLFFKKFTNTPFNGKIETYWPNGNLKETGIITDGKKDNLWEYYYENGNPKEVEF | -0.876
58 | HMTNVFSIIGKKALVIKDIDPIHSSGQIKLNGEVWSAETENDEIIKEGSEVEVLKINGVKAIVKLV | -0.664
59 | HMTNVIPKAMAPFNGSTIIADGIKNIKDHIDNLYITVGYKGATLSEHVINKGVSAVFNTTGKGNAWWVYN | 0.343
60 | HMTNVLSEQESKLLERMNKAGLNAEITVKKAAQILNLSESAARNVLNRLVGKGYLTVDTSRLPFLFQR | -0.277
61 | HMTNVVSKNKAKEIAMNIINDTVLQGQTAATFKEIVKANGVYVVKIEIQGQEYTSYITKDGKIVFPYGVEV | -1.07
62 | HMTNYSFIVNENFNNKRIDQVVANHYPKISRTKVNKIIKNNLLKLNGSTFNDPSAKVKLGDQIEFENL | 0.434
63 | HMTPAKQVSAKAERWIDQLGSSDWEKREEAAAELKKLGGAAKSALEKALKNADPEVASKAEELLEALES | 0.19
64 | HMTPATVVIPKVAGQTVAEAKETLKNANFEIGEEKDESSDTVEEGRVIRTDPESGTNRKEGTKINLIVSS | 0.0198
65 | HMTPFVINVDRHGAVIINEKTVDIDEAVVLARQERSQGKSILLAGDKKAPYEAIIRVLDALKQAG | -0.758
66 | HMTPNATWQDDAQNLLRDLIQHQPVLVQISAAKRLRDQAEQISRITGGETVTREHVEAAGHALGMGVT | 0.209
67 | HMTPNRDDEHLQSLRDYYASNRRIPSLQRIAALLGFSSRSAAVKLMGRLADEGFVERTVDDDAWIPGSRFF | -1.14
68 | HMTPQDYEYLRKLLKDQSGLDLSVDKQYLLESRLVPLSRKAGLAGIPELVQKMKAGSASLTAQVVEAMTT | -0.11
69 | HMTPVFGEEETVLQAAVRGIISDTDQWTMEAEAKSMLNQLGFSDYEEKMAHMSGGQKKRVALVNALLTP | 0.116
70 | HMTQDFEPGGQVFSRGEWLTIIRVNKSNGAVSSVTTPNYSFLGYSGTMKVTPDRITDYKAPSAEEAAVAS | -0.451
71 | HMTQGRVTGDGVNVRSQPNTDSAILTRVSTGKVVELISLKDNWYNVVVNGTKGYIRADYVSPYDG | -0.904
72 | HMTQLPEVPVERGMVLEEVQSGWVGAVTRVEKSGGMHVVALEDRRGKSRSFRLGFGFLLEGQPIRLMPPAP | -1.89
73 | HMTRAETPMAFIRAMVEAYTERGLDPNQALRKAQITPSQLKSTNARVTTLQMEWMSETAMREL | -0.292
74 | HMTRDAQLAALERLMDDPSPVVRKAVLKGVQAAGTEGLLWLQQLSKNQTLGPYALALLTELR | -0.72
75 | HMTRNGTVTFFNHDKGYGFIKDVLTQESVFVHINSLSEPINEQNKVSFEIEMGPRGSNAINVKLI | -1.65
76 | HMTRTEYMAQLEKYLKKLPHKEFQEAITFFNEYFDEAGPEKETAIMEELGSPKEAASELITNILNRHI | -0.433
77 | HMTRTISKVAKELAINIETVRFYERRGLIEQPPKPELGYRHYPDETVNRIRFIKRAQELGFTLEEIANLLS | -1.66

Reference: the domain aggregation screens of Martell et al. (2025)
